Test results from US20200332020A1 (REGENTS OF THE UNIVERSITY OF MINNESOTA, published 2020).

Experiments:
[1] = target: HSPG2 (perlecan) on cells (human, UniProt P98160 22-4391); assay: apparent KD, flow cytometry titration on tumor cells
[2] = target: T1, Recombinant HSPG2 domain 1 (first 247 amino acids of human HSPG2, C-terminal His tag) (human, UniProt P98160 22-247); assay: biolayer interferometry (BLItz), HSPG2 domain 1 on Ni-NTA biosensor
T1 construct: range 1-247; The stated range counts from residue 1, so it includes the signal peptide; also called HSPG2D1; perlecan domain 1; not shown: C-terminal His tag from the pcDNA 3.3+ vector
Method: We used biolayer inferometry (BLItz, Fortebio) to determine antibody binding kinetics specifically with purified HSPG2 domain 1. Ni-NTA biosensors were hydrated for 10 minutes in phosphate buffered saline. Following hydration, a 30 second baseline was established, followed by a 10-minute loading of the biosensor with 10 μg/mL HSPG2 domain 1 protein. The biosensor was then placed in PBS to establish baseline for 30 seconds. A two-step antibody association—dissociation cycle of 5 minutes each was then used to determine the kinetic association (kₐ) and dissociation (kd) rate constants. The equilibrium dissociation constant (KD) was calculated as KD=kd/kₐ
An important caveat with flow cytometry-based titration curves is the potential for avidity affects contributing to the binding, resulting in an ‘apparent KD’. Biophysical techniques are most often employed to generate the true, analytically relevant ‘intrinsic KD^{’} value. We chose biolayer interferometry as a means of assessing the kinetics of antibody-antigen binding with HSPG2D1.

Kd [1]: 0.125 to 0.275 µM
Kd [2]: 1.79 µM
koff [2]: 0.0109 s⁻¹
kon [2]: 6140 M⁻¹ s⁻¹
B1: Tw1S4_6 IgG (antibody, V domains shown)
VH: EVQLLESGGGLVQPGGSLRLSCAASGFTFSSYAMSWVRQAPGKGLEWVSAIREDGIKTYYADSVKGRFTISRDNSKNTLYLQMNSLRAEDTAVYYCAKRARRFDYWGQGTLVTVS
VL: DIQMTQSPSSLSASVGDRVTITCRASQSISSYLNWYQQKPGKAPKLLIYNASLLQSGVPSRFSGSGSGTDFTLTISSLQPEDFATYYCQQSLRSPITFGQGTKVEIKR
